Measured values published in publication PMC4882581, “Characterisation of assembly and ubiquitylation by the RBCC motif of Trim5α” (Scientific Reports, 2016).

B1: RhT5 88–261dCC (wild type) (domain or fragment, Rhesus macaque)
chain: PEEGQKVDHCARHGEKLLLFCQEDSKVICWLCERSQEHRGHHTFLMEEVAQEYHVKLQTALEMLRQKGGDPYMRELISELEHRLQGSMMDLLQGVDGIIKRIEN
notes: Trim5α, Rhesus macaque, Bbox-CC, residues Pro88-Lys154; Trim5α, Rhesus macaque, CC-L2, residues Tyr229-Asn261; In a monomer-trimer equilibrium; Vector pET47b or pET49b; IMAC purification, so the His-tag is surmised; also called RhT5 88–216dCC (as printed once); source: E. coli BL21(DE3), purified (IMAC, 3C cleavage, anion exchange, SEC); not shown: His-tag, N-terminal, cleaved
B2: RhT5 1–261dCC (RhT5 1–261Δ155–228), wild type (domain or fragment, Rhesus macaque)
chain: MASGILLNVKEEVTCPICLELLTEPLSLHCGHSFCQACITANHKKSMLYKEGERSCPVCRISYQPENIQPNRHVANIVEKLREVKLSPEEGQKVDHCARHGEKLLLFCQEDSKVICWLCERSQEHRGHHTFLMEEVAQEYHVKLQTALEMLRQKGGDPYMRELISELEHRLQGSMMDLLQGVDGIIKRIEN
notes: Trim5α, Rhesus macaque, RING, L1, Bbox and start of the coiled-coil, residues 1–154; In a monomer-trimer equilibrium (trimer mass printed 67.8 kDa); also called Wt; source: expressed in LB broth with IPTG; purified (amylose resin, on column 3C protease cleavage, anion exchange); not shown: MBP, C-terminal, cleaved
B3: RhT5 94–141 (Trim5α Bbox domain alone, residues 94–141) (domain or fragment, Rhesus macaque, UniProt Q0PF16 94-141, looked up)
chain: VDHCARHGEKLLLFCQEDSKVICWLCERSQEHRGHHTFLMEEVAQEYH
notes: Trim5α, Rhesus macaque, Bbox domain, residues 94–141; Cloned into pET47b (N-terminal His-tag) or pET49b (N-terminal GST-tag); purified by IMAC, so the His-tag vector is surmised; also called RhT5α 94–141; Bbox only construct; source: E. coli BL21(DE3), purified (IMAC, 3C cleavage, anion exchange, SEC); not shown: His-tag, N-terminal, cleaved

Experiments:
[1] = molecular target: the molecule itself; assay: AUC; multi-speed sedimentation equilibrium; monomer to trimer; three concentrations (0.125, 0.25, 0.5 mg/ml); 14,000, 18,000 and 22,000 rpm; 20 °C; 10 mM Tris/HCl pH 7.8, 150 mM NaCl; fit in SEDPHAT
[2] = molecular target: the molecule itself; assay: AUC; sedimentation velocity, c(S) analysis, and isotherm of the weight-averaged S fit to a monomer-trimer model (monomer to trimer, RhT5 1–261dCC); 20 °C; 10 mM Tris/HCl pH 7.8, 150 mM NaCl; 50 krpm (RhT5 94–141, RhT5 88–261dCC) or 38 krpm (RhT5 1–261dCC)

| Protein | stoichiometry N [1] | stoichiometry N [2] |
| --- | --- | --- |
| B1 | 3 |  |
| B2 |  | 3 |
| B3 |  | 2 |
